What was measured:
Polθ-hel = Polθ-hel (human, UniProt O75417 1-894); assay: EMSA; PARP1 or NAD+ omitted; 40 nM protein, 10 nM DNA; 25 mM Tris-HCl pH 7.5, 5 mM MgCl2, 30 mM NaCl, 5% glycerol, 0.1 mg/mL BSA, 1 mM DTT; PARylation 20 min 37 °C, binding at room temperature; 8% native PAGE 0.5x TBE; settings: protein: recombinant; label: 5'-Cy3; single strand
PARP1 = PARP1 (UniProt P09874 1-1014); assay: EMSA; 25 nM PARP1; 25 mM Tris-HCl pH 7.5, 5 mM MgCl2, 30 mM NaCl, 5% glycerol, 0.1 mg/mL BSA, 1 mM DTT; PARylation 20 min 37 °C, binding at room temperature; 8% native PAGE 0.5x TBE; settings: protein: recombinant; tags: N-terminal His; label: 5'-Cy3; single strand
Chain of PARP1 (P09874 whole entry): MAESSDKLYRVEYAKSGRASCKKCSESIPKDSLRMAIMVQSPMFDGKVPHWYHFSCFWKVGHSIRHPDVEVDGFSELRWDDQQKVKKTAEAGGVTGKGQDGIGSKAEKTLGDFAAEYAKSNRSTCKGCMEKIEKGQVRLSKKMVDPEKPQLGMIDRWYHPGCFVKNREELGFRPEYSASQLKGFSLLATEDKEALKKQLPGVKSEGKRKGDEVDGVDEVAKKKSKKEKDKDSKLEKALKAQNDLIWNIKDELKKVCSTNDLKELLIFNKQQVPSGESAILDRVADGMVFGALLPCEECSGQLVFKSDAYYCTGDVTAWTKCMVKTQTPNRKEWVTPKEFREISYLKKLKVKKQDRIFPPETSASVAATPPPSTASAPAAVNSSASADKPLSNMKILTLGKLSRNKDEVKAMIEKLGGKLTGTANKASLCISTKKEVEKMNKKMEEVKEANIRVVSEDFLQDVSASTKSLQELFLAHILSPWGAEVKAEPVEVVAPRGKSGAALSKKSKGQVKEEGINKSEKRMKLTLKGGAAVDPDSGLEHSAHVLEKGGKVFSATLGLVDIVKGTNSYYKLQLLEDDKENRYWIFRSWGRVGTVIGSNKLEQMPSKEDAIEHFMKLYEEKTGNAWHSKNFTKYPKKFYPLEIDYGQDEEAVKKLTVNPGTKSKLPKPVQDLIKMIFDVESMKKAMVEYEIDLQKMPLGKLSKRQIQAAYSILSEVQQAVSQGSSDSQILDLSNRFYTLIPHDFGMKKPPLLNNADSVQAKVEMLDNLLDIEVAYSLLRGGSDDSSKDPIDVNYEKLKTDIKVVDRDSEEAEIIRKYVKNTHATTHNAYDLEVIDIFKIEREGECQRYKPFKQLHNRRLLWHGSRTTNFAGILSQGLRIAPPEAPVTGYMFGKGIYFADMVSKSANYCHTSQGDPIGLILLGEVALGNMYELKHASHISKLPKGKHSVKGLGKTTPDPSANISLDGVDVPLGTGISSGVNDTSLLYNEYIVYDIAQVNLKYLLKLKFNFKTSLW

Chain of Polθ-hel (O75417 1-894): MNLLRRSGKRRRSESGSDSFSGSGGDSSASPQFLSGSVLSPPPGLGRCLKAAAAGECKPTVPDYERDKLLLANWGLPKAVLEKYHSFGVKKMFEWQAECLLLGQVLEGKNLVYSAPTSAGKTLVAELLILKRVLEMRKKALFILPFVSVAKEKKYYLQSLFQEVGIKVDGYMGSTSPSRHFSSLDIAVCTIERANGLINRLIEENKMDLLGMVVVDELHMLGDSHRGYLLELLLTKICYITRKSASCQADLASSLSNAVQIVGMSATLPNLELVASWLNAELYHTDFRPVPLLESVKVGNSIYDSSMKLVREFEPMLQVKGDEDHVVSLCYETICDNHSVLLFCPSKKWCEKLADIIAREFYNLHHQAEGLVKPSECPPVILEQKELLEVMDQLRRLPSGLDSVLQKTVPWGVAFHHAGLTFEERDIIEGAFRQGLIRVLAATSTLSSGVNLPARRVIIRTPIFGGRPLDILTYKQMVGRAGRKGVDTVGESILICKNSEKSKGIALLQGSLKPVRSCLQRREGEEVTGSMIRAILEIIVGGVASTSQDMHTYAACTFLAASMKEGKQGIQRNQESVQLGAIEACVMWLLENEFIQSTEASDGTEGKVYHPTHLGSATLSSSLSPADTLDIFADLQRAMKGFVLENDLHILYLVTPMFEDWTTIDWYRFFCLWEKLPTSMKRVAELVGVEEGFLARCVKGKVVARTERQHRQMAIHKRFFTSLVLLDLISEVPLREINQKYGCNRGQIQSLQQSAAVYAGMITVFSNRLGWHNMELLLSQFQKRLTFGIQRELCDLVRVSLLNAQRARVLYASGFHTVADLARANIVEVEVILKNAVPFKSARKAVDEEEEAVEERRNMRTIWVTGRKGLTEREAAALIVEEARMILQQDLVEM

TTTTTTTTTTTTTTTTTTTTTTTTTTTTT (ssDNA) [RP316-Cy3]
binding result (Polθ-hel): binds | binding result (PARP1): no binding

Reference: article PMC11236980, “PARG is essential for Polθ-mediated DNA end-joining by removing repressive poly-ADP-ribose marks”
